Reference: the supplement of paper PMC7877785
± gives the uncertainty stated by the source.

Experiment: self-splicing fitness, log relative to wild type (ln ratio); higher = more splicing; Tetrahymena group I intron in knt gene, E. coli kanamycin selection, DiMSum; sequences stand for … in CUCUCU…GGAGGGAAAAGUUAUCAGGCAUGCACCUGGUAGCUAGUCUUUAAACCAAUAGAUUGCAUCGGUUUAAAAGGCAAGACCGUCAAAUUGCGGGAAAGGGGUCAACAGCCGUUCAGUACCAAGUCUCAGGGGAAACUUUGAGAUGGCCUUGCAAAGGGUAUGGUAAUAAGCUGACGGACAUGGUCCUAACCACGCAGCCAAGUCCUAAGUCAACAGAUCUUCUGUUGAUAUGGAUGCAGUUCACAGACUAAAUGUCGGUCGGGGAAGAUGUAUUCUUCUCAUAAGAUAUAGUCGGACCUCUCCUUAAUGGGAGCUAGCGGAUGAAGUGAUGCAACACUGGAGCCGCUGGGAACUAAUUUGUAUGCGAAAGUAUAUUGAUUAGUUUUGGAGUACUCGUGGUCG
Procedure, shortened: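 Six replicate transformations of E. coli BL21(DE3) with a pET-22b(+) library were grown overnight at 37°C or 30°C. The library randomised all eight P1ex-region intron nucleotides, the intron lying in the knt kanamycin-resistance gene, and plates were LB agar with or without 25 μg/mL kanamycin plus 100 μg/mL carbenicillin, 50 μM IPTG and 0.2% rhamnose. Pooled colonies were amplicon-sequenced on an Illumina HiSeq 2500, and fitness is the DiMSum error-weighted combination of wild-type-normalised replicate fold changes, kanamycin versus none.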

Sequence	self-splicing fitness (ln) (30 °C)	self-splicing fitness (ln) (37 °C)
UAAGAGCAAUAUUACGAUCA	-2.23 ± 0.29	-0.554 ± 0.19
UAAGAGCAAUAUUACGCCAU	-2.59 ± 0.46	-1.46 ± 0.38
UAAGAGCAAUAUUACGCCGA	-2.94 ± 0.47	–
UAAGAGCAAUAUUACGCUUA	-3.19 ± 0.32	-2.63 ± 0.35
UAAGAGCAAUAUUACGCUUG	-2.66 ± 0.23	-1.38 ± 0.18
UAAGAGCAAUAUUACGGACG	-1.89 ± 0.2	-1.67 ± 0.26
UAAGAGCAAUAUUACGGAGG	-3.41 ± 0.32	-1.95 ± 0.46
UAAGAGCAAUAUUACGGCUC	-1.82 ± 0.26	-1.32 ± 0.32
UAAGAGCAAUAUUACGGGAU	-3.55 ± 0.31	-2.99 ± 0.28
UAAGAGCAAUAUUACGGUGA	-3.83 ± 0.23	-2.14 ± 0.16
UAAGAGCAAUAUUACGUCGC	–	-3.39 ± 0.37
UAAGAGCAAUAUUACGUUGC	-2.74 ± 0.29	-2.32 ± 0.4
UAAUAGCAAUAUUACGAAAU	–	-2.07 ± 0.36
UAAUAGCAAUAUUACGAACG	-0.579 ± 0.071	-0.187 ± 0.082
UAAUAGCAAUAUUACGAACU	-1.37 ± 0.14	-1.62 ± 0.17
UAAUAGCAAUAUUACGAGAC	-3.38 ± 0.28	-2.03 ± 0.28
UAAUAGCAAUAUUACGAGAU	-4.03 ± 0.43	-2.38 ± 0.47
UAAUAGCAAUAUUACGAGGC	-3.59 ± 0.35	-1.46 ± 0.33
UAAUAGCAAUAUUACGAGUC	-2.97 ± 0.19	-3.77 ± 0.42
UAAUAGCAAUAUUACGCACG	-1.1 ± 0.16	0.193 ± 0.24

Sequence	self-splicing fitness (ln) (30 °C)	self-splicing fitness (ln) (37 °C)
UAAUAGCAAUAUUACGCGAG	-1.62 ± 0.14	-1.46 ± 0.13
UAAUAGCAAUAUUACGGACU	-1.25 ± 0.15	-1.43 ± 0.18
UAAUAGCAAUAUUACGGCCC	-2.07 ± 0.34	-0.336 ± 0.46
UAAUAGCAAUAUUACGGCGG	-1.27 ± 0.15	-0.245 ± 0.16
UAAUAGCAAUAUUACGGGUG	-1.9 ± 0.096	-0.875 ± 0.094
UAAUAGCAAUAUUACGGUAU	-3.69 ± 0.21	-2.68 ± 0.23
UAAUAGCAAUAUUACGUAGG	-2.37 ± 0.13	-1.06 ± 0.14
UAAUAGCAAUAUUACGUCCU	-0.907 ± 0.19	-0.798 ± 0.23
UAAUAGCAAUAUUACGUCGU	-2.91 ± 0.34	-0.94 ± 0.23
UAAUAGCAAUAUUACGUGGG	-2.91 ± 0.3	-3.08 ± 0.27
UAAUAGCAAUAUUACGUUUA	-1.86 ± 0.15	-1.81 ± 0.12
UACAAGCAAUAUUACGACGG	-0.767 ± 0.059	-0.442 ± 0.079
UACAAGCAAUAUUACGAGAG	-3.24 ± 0.17	-2.65 ± 0.18
UACAAGCAAUAUUACGAGGA	-2.98 ± 0.2	-1.8 ± 0.14
UACAAGCAAUAUUACGAUUA	-0.0989 ± 0.079	0.278 ± 0.085
UACAAGCAAUAUUACGCACC	-1.62 ± 0.14	-1.42 ± 0.23
UACAAGCAAUAUUACGCCGU	-2.13 ± 0.16	-1.62 ± 0.18
UACAAGCAAUAUUACGCGAC	-3.51 ± 0.27	-1.5 ± 0.22
UACAAGCAAUAUUACGCUGG	-2.54 ± 0.15	-1.87 ± 0.15
